Measured values: patent publication US20230322957A1 (ENGMAB SARL, published 2023)
Substitutions are numbered along the chain they refer to.

T1: human BCMA on the cell surface (human, UniProt Q02223 1-184)
T1 sequence (looked up): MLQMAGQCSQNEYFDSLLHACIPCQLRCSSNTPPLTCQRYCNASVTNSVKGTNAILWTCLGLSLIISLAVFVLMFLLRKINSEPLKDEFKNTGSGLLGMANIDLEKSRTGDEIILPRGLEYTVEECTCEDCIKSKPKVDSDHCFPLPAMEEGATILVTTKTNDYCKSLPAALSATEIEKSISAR

B1: 21-TCBcv (bispecific antibody, human IgG1, kappa, L234A L235A)
heavy 1: not shown
heavy 2: EVQLLESGGGLVQPGGSLRLSCAASGFTFSDNAMGWVRQAPGKGLEWVSAISGPGSSTYYADSVKGRFTISRDNSKNTLYLQMNSLRAEDTAVYYCAKVLGWFDYWGQGTLVTVSSASTKGPSVFPLAPSSKSTSGGTAALGCLVEDYFPEPVTVSWNSGALTSGVHTFPAVLQSSGLYSLSSVVTVPSSSLGTQTYICNVNHKPSNTKVDEKVEPKSCDKTHTCPPCPAPEAAGGPSVFLFPPKPKDTLMISRTPEVTCVVVDVSHEDPEVKFNWYVDGVEVHNAKTKPREEQYNSTYRVVSVLTVLHQDWLNGKEYKCKVSNKALGAPIEKTISKAKGQPREPQVCTLPPSRDELTKNQVSLSCAVKGFYPSDIAVEWESNGQPENNYKTTPPVLDSDGSFFLVSKLTVDKSRWQQGNVFSCSVMHEALHNHYTQKSLSLSPGK
light 1: EIVLTQSPGTLSLSPGERATLSCRASQSVSEYYLAWYQQKPGQAPRLLIEHASTRATGIPDRFSGSGSGTDFTLTISRLEPEDFAVYYCQQYGYPPDFTFGQGTKVEIKRTVAAPSVFIFPPSDRKLKSGTASVVCLLNNFYPREAKVQWKVDNALQSGNSQESVTEQDSKDSTYSLSSTLTLSKADYEKHKVYACEVTHQGLSSPVTKSFNRGEC
light 2: EVQLLESGGGLVQPGGSLRLSCAASGFTFSTYAMNWVRQAPGKGLEWVSRIRSKYNNYATYYADSVKGRFTISRDDSKNTLYLQMNSLRAEDTAVYYCVRHGNFGNSYVSWFAYWGQGTLVTVSSASVAAPSVFIFPPSDEQLKSGTASVVCLLNNFYPREAKVQWKVDNALQSGNSQESVTEQDSKDSTYSLSSTLTLSKADYEKHKVYACEVTHQGLSSPVTKSFNRGEC
B2: 22-TCBcv (bispecific antibody, human IgG1, kappa, L234A L235A)
heavy 1: not shown
heavy 2: B1 heavy 2
light 1: B1 light 1 with E31S, E50S, H51G, S53G, T54S
light 2: B1 light 2
B3: 42-TCBcv (bispecific antibody, human IgG1, kappa, L234A L235A)
heavy 1: not shown
heavy 2: B1 heavy 2
light 1: B1 light 1 with E31D, Y32E, A35S, E50H, H51S, T75A
light 2: B1 light 2
B4: Mab 21 IgG (antibody, V domains shown)
VH: EVQLLESGGGLVQPGGSLRLSCAASGFTFSDNAMGWVRQAPGKGLEWVSAISGPGSSTYYADSVKGRFTISRDNSKNTLYLQMNSLRAEDTAVYYCAKVLGWFDYWGQGTLVTVSS
VL: EIVLTQSPGTLSLSPGERATLSCRASQSVSEYYLAWYQQKPGQAPRLLIEHASTRATGIPDRFSGSGSGTDFTLTISRLEPEDFAVYYCQQYGYPPDFTFGQGTKVEIK
notes: Tested as human IgG1; also called antibody 21

Columns and labels:
[1] = molecular target: T1, human BCMA on the cell surface; experiment: cell-based or functional assay
[2] = molecular target: T1, human BCMA on the cell surface; experiment: cell-based or functional assay; remark: listed apart in the source
[3] = molecular target: T1, human BCMA on the cell surface; experiment: cell-based or functional assay; remark: listed apart in the source
[4] = molecular target: T1, human BCMA on the cell surface; experiment: cell-based or functional assay; remark: listed apart in the source
[5] = molecular target: T1, human BCMA on the cell surface; experiment: cell-based or functional assay; remark: listed apart in the source
[6] = molecular target: T1, human BCMA on the cell surface; experiment: cell-based or functional assay; remark: listed apart in the source
[7] = molecular target: recombinant cynomolgus BCMA Fc(kih) (cynomolgus, UniProt A0A2K5UD97 4-51, biotinylated in vivo at the avi-tag at the C-terminus of the Fc knob chain); experiment: ratio of the SPR KDs of Table 4, human BCMA as reference
Sequence of recombinant cynomolgus BCMA Fc(kih) (A0A2K5UD97 entry or part of it): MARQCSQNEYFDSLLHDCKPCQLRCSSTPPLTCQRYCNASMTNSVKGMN
Method: Assessment of binding of anti-BCMA antibodies to recombinant BCMA by surface plasmon resonance (SPR) as follow. All SPR experiments were performed on a Biacore T200 at 25° C. with HBS-EP as running buffer (0.01M HEPES pH 7.4, 0.15M NaCl, 3 mM EDTA, 0.005% Surfactant P20, Biacore, Freiburg/Germany). The avidity of the interaction between anti-BCMA antibodies and recombinant BCMA Fc(kih) (human and cynomolgus) was determined. Biotinylated recombinant human and cynomolgus BCMA Fc(kih) were directly coupled on a SA chip following instructions (Biacore, Freiburg/Germany). The immobilization level ranged from 200 to 700 RU. […] The dissociation was monitored for 180 seconds. Bulk refractive index differences were corrected for by subtracting the response obtained on the reference flow cell. Here, the anti-BCMA antibodies were flown over an empty surface previously activated and deactivated as described in the standard amine coupling kit. Apparent kinetic constants were derived using the Biacore T200 Evaluation Software (vAA, Biacore AB, Uppsala/Sweden), to fit rate equations for 1:1 Langmuir binding by numerical integration, despite the bivalency of the interaction for comparison purposes. The affinity of the interaction between anti-BCMA antibodies and recombinant human BCMA Fc(kih) was also determined. Anti-human Fab antibody (GE Healthcare) was directly coupled on a CM5 chip at pH 5.0 using the standard amine coupling kit (Biacore, Freiburg/Germany). The immobilization level was about 6500 RU. […] The dissociation was monitored for 120 seconds. Bulk refractive index differences were corrected for by subtracting the response obtained on reference flow cell. […] Kinetic constants were derived using the Biacore T100 Evaluation Software (vAA, Biacore AB, Uppsala/Sweden), to fit rate equations for 1:1 Langmuir binding by numerical integration (Table 4).

Binder	EC50 redirected T-cell killing of H929 cells (LDH release), Donor 1 [1] [nM]	EC50 redirected T-cell killing of H929 cells (LDH release), Donor 3 [1] [nM]	EC50 redirected T-cell killing of H929 cells (LDH release), Donor 4 [1] [nM]	EC50 redirected T-cell killing of H929 cells (LDH release), Donor 5 [1] [nM]	EC50 redirected T-cell killing of L363 cells (LDH release), Donor 1 [2] [nM]	EC50 redirected T-cell killing of L363 cells (LDH release), Donor 2 [2] [nM]	EC50 redirected T-cell killing of L363 cells (LDH release), Donor 3 [2] [nM]	EC50 redirected T-cell killing of L363 cells (LDH release), Donor 4 [2] [nM]	EC50 redirected T-cell killing of L363 cells (LDH release), Donor 5 [2] [nM]	EC50 redirected T-cell killing of RPMI-8226 cells (LDH release), Donor 2 [3] [nM]	EC50 redirected T-cell killing of RPMI-8226 cells (LDH release), Donor 3 [3] [nM]	EC50 redirected T-cell killing of RPMI-8226 cells (LDH release), Donor 4 [3] [nM]	EC50 redirected T-cell killing of RPMI-8226 cells (LDH release), Donor 5 [3] [nM]	Annexin-V positive JJN-3 cells (%) at 0.1 pM, Experiment 2 [4] [%]	Annexin-V positive JJN-3 cells (%) at 1 pM, Experiment 1 [4] [%]	Annexin-V positive JJN-3 cells (%) at 1 pM, Experiment 2 [4] [%]	Annexin-V positive JJN-3 cells (%) at 10 pM, Experiment 1 [4] [%]	Annexin-V positive JJN-3 cells (%) at 10 pM, Experiment 2 [4] [%]	Annexin-V positive JJN-3 cells (%) at 100 pM, Experiment 1 [4] [%]	Annexin-V positive JJN-3 cells (%) at 100 pM, Experiment 2 [4] [%]	other results
B1	0.0971	0.0421	0.0539	0.0387	0.0836	0.0384	0.0189	0.0191	0.0464	0.0413	0.0088	0.004	0.0084	–	–	–	–	–	–	–	–
B2	0.0532	0.0422	0.0232	0.0289	0.0975	0.0277	0.0165	0.0146	0.056	0.0476	0.0076	0.0032	0.0055	14.8	9.3	15	13.3	15.9	12.5	18.4	Annexin-V positive JJN-3 cells (%) at 1000 pM, Experiment 1 [4]: 26.1%; Annexin-V positive JJN-3 cells (%) at 1000 pM, Experiment 2 [4]: 27%; Annexin-V positive JJN-3 cells (%) at 10000 pM, Experiment 1 [4]: 22.9%; Annexin-V positive JJN-3 cells (%) at 10000 pM, Experiment 2 [4]: 29.7%; Lysis of JJN-3 cells (%) at 0.1 pM, Experiment 2 [5]: 36.5%; Lysis of JJN-3 cells (%) at 1 pM, Experiment 1 [5]: 4.29%; Lysis of JJN-3 cells (%) at 1 pM, Experiment 2 [5]: 24.4%; Lysis of JJN-3 cells (%) at 10 pM, Experiment 1 [5]: 73.6%; Lysis of JJN-3 cells (%) at 10 pM, Experiment 2 [5]: 41.7%; Lysis of JJN-3 cells (%) at 100 pM, Experiment 1 [5]: 56.3%; Lysis of JJN-3 cells (%) at 100 pM, Experiment 2 [5]: 53%; Lysis of JJN-3 cells (%) at 1000 pM, Experiment 1 [5]: 90.5%; Lysis of JJN-3 cells (%) at 1000 pM, Experiment 2 [5]: 94.1%; Lysis of JJN-3 cells (%) at 10000 pM, Experiment 1 [5]: 88%; Lysis of JJN-3 cells (%) at 10000 pM, Experiment 2 [5]: 91.2%; Annexin-V positive patient bone marrow myeloma plasma cells (%) at 10 pM [6]: 14.2%; Annexin-V positive patient bone marrow myeloma plasma cells (%) at 100 pM [6]: 14.8%; Annexin-V positive patient bone marrow myeloma plasma cells (%) at 1000 pM [6]: 31%; Annexin-V positive patient bone marrow myeloma plasma cells (%) at 10000 pM [6]: 51.7%; Annexin-V positive patient bone marrow myeloma plasma cells (%) at 30000 pM [6]: 55.7%
B3	0.0097	0.0117	0.0072	0.0068	0.0155	0.0167	0.0052	0.0022	0.0106	0.383	0.0187	0.0035	0.0015	12.8	11.9	13.5	12.3	13.6	8.62	14.4	Annexin-V positive JJN-3 cells (%) at 1000 pM, Experiment 1 [4]: 16.8%; Annexin-V positive JJN-3 cells (%) at 1000 pM, Experiment 2 [4]: 21.7%; Annexin-V positive JJN-3 cells (%) at 10000 pM, Experiment 1 [4]: 24.8%; Annexin-V positive JJN-3 cells (%) at 10000 pM, Experiment 2 [4]: 26.9%; Lysis of JJN-3 cells (%) at 0.1 pM, Experiment 2 [5]: 17.6%; Lysis of JJN-3 cells (%) at 1 pM, Experiment 1 [5]: 40.3%; Lysis of JJN-3 cells (%) at 1 pM, Experiment 2 [5]: 34.9%; Lysis of JJN-3 cells (%) at 10 pM, Experiment 1 [5]: 39%; Lysis of JJN-3 cells (%) at 10 pM, Experiment 2 [5]: 39.4%; Lysis of JJN-3 cells (%) at 100 pM, Experiment 1 [5]: 41.9%; Lysis of JJN-3 cells (%) at 100 pM, Experiment 2 [5]: 55.3%; Lysis of JJN-3 cells (%) at 1000 pM, Experiment 1 [5]: 84%; Lysis of JJN-3 cells (%) at 1000 pM, Experiment 2 [5]: 81.1%; Lysis of JJN-3 cells (%) at 10000 pM, Experiment 1 [5]: 92.9%; Lysis of JJN-3 cells (%) at 10000 pM, Experiment 2 [5]: 90.4%; Annexin-V positive patient bone marrow myeloma plasma cells (%) at 10 pM [6]: 19.6%; Annexin-V positive patient bone marrow myeloma plasma cells (%) at 100 pM [6]: 10.5%; Annexin-V positive patient bone marrow myeloma plasma cells (%) at 1000 pM [6]: 30%; Annexin-V positive patient bone marrow myeloma plasma cells (%) at 10000 pM [6]: 39.9%; Annexin-V positive patient bone marrow myeloma plasma cells (%) at 30000 pM [6]: 52.5%
B4	–	–	–	–	–	–	–	–	–	–	–	–	–	–	–	–	–	–	–	–	Affinity cyno/hu gap (KD cynomolgus BCMA / KD human BCMA) [7]: 9.3 fold
